Bounds are passed on as bounds.

T1: recombinant human LAG-3-his protein (Novoprotein) (human, UniProt P18627 23-450)
T1 construct: Bought; also called huLAG-3; not shown: His tag
T1 sequence (looked up): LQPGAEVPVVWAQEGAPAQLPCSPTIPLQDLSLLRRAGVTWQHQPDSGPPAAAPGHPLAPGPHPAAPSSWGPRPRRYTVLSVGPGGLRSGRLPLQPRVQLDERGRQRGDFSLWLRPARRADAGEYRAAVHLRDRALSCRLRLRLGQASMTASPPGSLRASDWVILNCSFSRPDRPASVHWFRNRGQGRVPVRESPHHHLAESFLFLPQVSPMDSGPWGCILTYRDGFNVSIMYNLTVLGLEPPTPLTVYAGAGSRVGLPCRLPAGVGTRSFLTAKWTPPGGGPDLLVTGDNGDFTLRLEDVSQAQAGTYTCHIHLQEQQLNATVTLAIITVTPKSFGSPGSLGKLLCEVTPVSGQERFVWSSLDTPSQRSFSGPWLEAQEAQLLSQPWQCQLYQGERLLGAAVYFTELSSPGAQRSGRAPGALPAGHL

B1: HumAb719-8 (antibody, human IgG1, kappa, L234A L235A, V domains shown)
VH: EVQLLESGGGLVQPGGSLRLSCAASGFTFSSHLMSWVRQAPGKGLEWVSAISGGGADTYYPDSVKGRFTISRDNSKNTLYLQMNSLRAEDTAVYYCAKQILAFDSWGQGTTVTVSS
VL: DIQMNQSPSSLSASVGDRVTITCHASQNIYVWLNWYQQKPGKAPKLLIYKASNLHTGVPSRFSGSGSGTDFTFTISSLQPEDIATYYCQQGQSYPWTFGGGTKVEIKR
notes: humanized mAb719
B2: HumAb719-21 (antibody, human IgG1, kappa, L234A L235A, V domains shown)
VH: EVQLLESGGGLVQPGGSLRLSCAASGFSFSSHLMSWVRQAPGKRLEWVAAISGGGADTYYPASVKGRFTISRDNSKNTLYLQMNSLRAEDTAVYYCTRQILAFDAWGQGTTVTVSS
VL: DIQMNQSPSSLSASVGDRVTITCHASQNIYVWLNWYQQKPGKIPKLLIYKASNLHTGVPSRFSGSGSGTDFTFTISSLQPEDIATYYCQQGQSYPWTFGGGTKVEIKR
notes: humanized mAb719; also called HuniAb719-21
B3: HumAb719-12 (antibody, human IgG1, kappa, L234A L235A, V domains shown)
VH: EVQLLESGGGLVQPGGSLRLSCAASGFSFSSHLMSWVRQAPGKRLEWVAAISGGGADTYYPDSVKGRFTISRDNSKNTLYLQMNSLRAEDTAVYYCTRQILAFDSWGQGTTVTVSS
VL: DIQMNQSPSSLSASVGDRVTITCHASQNIYVWLNWYQQKPGKAPKLLIYKASNLHTGVPSRFSGSGSGTDFTFTISSLQPEDIATYYCQQGQSYPWTFGGGTKVEIKR
notes: humanized mAb719
B4: mAb719c (antibody, V domains shown)
VH: EVKLVESGGGLVKPGGSLKLSCTASGFSFSSHLMSWVRQTPEKRLEWVAAISGGGADTYYPDSVKGRFTISRDNAKNTLYLQMRSLRSEDTALYYCTRQILAFDSWGQGTTLTVSS
VL: DIQMNQSPSSLSVSLGDTITITCHASQNIYVWLNWYQQKPGNIPKLLIYKASNLHTGVPSRFSGGGSGTGFTLTISSLQPEDIATYYCQQGQSYPWTFGGGTKLEIK
B5: HumAb747-46 (antibody, human IgG1, V domains shown)
VH: EVQLVQSGAEVKKPGATVKLSCTASDFNIKDDYMHWVKQAPGKGLEWIGWIVPENGNTEYASKFQGRATITADTSTNTAYLELSSLRSEDTAVYYCTVYGDYWGQGTTVTVSS
VL: DIQMTQSPSSLSASVGDRVTITCRASQEISGYLSWLQQKPGKAIKSLIYAASTLDSGVPSRFSGSRSGTDFTLTISSLQPEDFATYYCLQYASYPLTFGQGTKLEIK
notes: humanized mAb747; human IgG1/kappa constant domains
B6: HumAb747-47 (antibody, human IgG1, V domains shown)
VH: EVQLVQSGAEVKKPGATVKISCKVSDFNIKDDYMHWVQQAPGKGLEWIGWIVPENGNTEYASKFQGRVTITADTSTDTAYLELSSLRSEDTAVYYCTVYGDYWGQGTTVTVSS
VL: DIQMTQSPSSLSASVGDRVTITCRASQEISGYLSWLQQKPGKAIKRLIYAASTLDSGVPSRFSGSRSGTDFTLTISSLQPEDFATYYCLQYASYPLTFGQGTKLEIK
notes: as for B5
B7: HumAb747-44 (antibody, human IgG1, V domains shown)
VH: EVQLVQSGAEVKKPGATVKLSCKASDFNIKDDYMHWVQQAPGKGLEWIGWIVPENGNTEYASKFQGRVTITADTSTDTAYLELSSLRSEDTAVYYCTVYGDYWGQGTTVTVSS
VL: DIQMTQSPSSLSASVGDRVTITCRASQEISGYLSWLQQKPGKAIKSLIYAASTLDSGVPSRFSGSRSGTDFTLTISSLQPEDFATYYCLQYASYPLTFGQGTKLEIK
notes: as for B5
B8: HumAb747-43 (antibody, human IgG1, V domains shown)
VH: EVQLVQSGAEVKKPGATVKISCKVSDFNIKDDYMHWVQQAPGKGLEWIGWIVPENGNTEYASKFQGRVTITADTSTDTAYLELSSLRSEDTAVYYCTVYGDYWGQGTTVTVSS
VL: DIQMTQSPSSLSASVGDRVTITCRASQEISGYLSWLQQKPGKAIKSLIYAASTLDSGVPSRFSGSRSGTDFTLTISSLQPEDFATYYCLQYASYPLTFGQGTKLEIK
notes: as for B5
B9: HumAb747-45 (antibody, human IgG1, V domains shown)
VH: EVQLVQSGAEVKKPGATVKLSCTASDFNIKDDYMHWVQQAPGKGLEWIGWIVPENGNTEYASKFQGRVTITADTSTDTAYLELSSLRSEDTAVYYCTVYGDYWGQGTTVTVSS
VL: DIQMTQSPSSLSASVGDRVTITCRASQEISGYLSWLQQKPGKAIKSLIYAASTLDSGVPSRFSGSRSGTDFTLTISSLQPEDFATYYCLQYASYPLTFGQGTKLEIK
notes: as for B5
B10: HumAb747-48 (antibody, human IgG1, V domains shown)
VH: EVQLVQSGAEVKKPGATVKLSCKASDFNIKDDYMHWVQQAPGKGLEWIGWIVPENGNTEYASKFQGRVTITADTSTDTAYLELSSLRSEDTAVYYCTVYGDYWGQGTTVTVSS
VL: DIQMTQSPSSLSASVGDRVTITCRASQEISGYLSWLQQKPGKAIKRLIYAASTLDSGVPSRFSGSRSGTDFTLTISSLQPEDFATYYCLQYASYPLTFGQGTKLEIK
notes: as for B5
B11: HumAb747-54 (antibody, human IgG1, V domains shown)
VH: EVQLVQSGAEVKKPGATVKLSCTASDFNIKDDYMHWVKQAPGKGLEWIGWIVPENGNTEYASKFQGRATITADTSTNTAYLELSSLRSEDTAVYYCTVYGDYWGQGTTVTVSS
VL: DIQMTQSPSSLSASVGDRVTITCRASQEISGYLSWLQQKPGGAIKRLIYAASTLDSGVPSRFSGSRSGSDYTLTISSLQPEDFADYYCLQYASYPLTFGQGTKLELK
notes: as for B5
B12: HumAb747-49 (antibody, human IgG1, V domains shown)
VH: EVQLVQSGAEVKKPGATVKLSCTASDFNIKDDYMHWVQQAPGKGLEWIGWIVPENGNTEYASKFQGRVTITADTSTDTAYLELSSLRSEDTAVYYCTVYGDYWGQGTTVTVSS
VL: DIQMTQSPSSLSASVGDRVTITCRASQEISGYLSWLQQKPGKAIKRLIYAASTLDSGVPSRFSGSRSGTDFTLTISSLQPEDFATYYCLQYASYPLTFGQGTKLEIK
notes: as for B5
B13: HumAb747-50 (antibody, human IgG1, V domains shown)
VH: EVQLVQSGAEVKKPGATVKLSCTASDFNIKDDYMHWVKQAPGKGLEWIGWIVPENGNTEYASKFQGRATITADTSTNTAYLELSSLRSEDTAVYYCTVYGDYWGQGTTVTVSS
VL: DIQMTQSPSSLSASVGDRVTITCRASQEISGYLSWLQQKPGKAIKRLIYAASTLDSGVPSRFSGSRSGTDFTLTISSLQPEDFATYYCLQYASYPLTFGQGTKLEIK
notes: as for B5
B14: HumAb747-51 (antibody, human IgG1, V domains shown)
VH: EVQLVQSGAEVKKPGATVKISCKVSDFNIKDDYMHWVQQAPGKGLEWIGWIVPENGNTEYASKFQGRVTITADTSTDTAYLELSSLRSEDTAVYYCTVYGDYWGQGTTVTVSS
VL: DIQMTQSPSSLSASVGDRVTITCRASQEISGYLSWLQQKPGGAIKRLIYAASTLDSGVPSRFSGSRSGSDYTLTISSLQPEDFADYYCLQYASYPLTFGQGTKLELK
notes: as for B5

In the first experiment the target is T2, human PD-1 ECD/Fc fusion protein (human).
T2 construct: also called huPD-1/Fc; HuPD-1 ECD/Fc
T2 sequence (chain, as listed by the source limits assumed): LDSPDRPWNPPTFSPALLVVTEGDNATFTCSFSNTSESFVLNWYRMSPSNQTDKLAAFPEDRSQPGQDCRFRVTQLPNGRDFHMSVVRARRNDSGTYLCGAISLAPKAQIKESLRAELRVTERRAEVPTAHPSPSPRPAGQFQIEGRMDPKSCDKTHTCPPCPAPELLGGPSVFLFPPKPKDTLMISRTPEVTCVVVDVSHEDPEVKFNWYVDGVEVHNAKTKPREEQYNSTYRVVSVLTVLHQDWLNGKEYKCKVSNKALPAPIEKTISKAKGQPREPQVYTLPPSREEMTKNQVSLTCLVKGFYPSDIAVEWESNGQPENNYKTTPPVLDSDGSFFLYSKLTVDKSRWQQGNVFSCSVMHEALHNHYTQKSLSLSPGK
Nature of the experiment: BLI Octet, immobilized huPD-1-Fc, Ab analyte. From the text: All 21 humanized antibodies and the chimeric antibody (mAb719c) were characterized by binding ELISA and affinity determination using Octet® RED96 biolayer interferometry system (Pall FortéBio LLG), using a biosensor having immobilized human PD-Fc as the antibody target. Rate constants were derived by making kinetic binding measurements at five different concentrations of antibody.
On the technique in general: In BLI a coated tip is dipped into the sample, and binding shifts an interference pattern.
Turning to B1, binding was characterised by a dissociation constant (Kd) of 0.46 nM; the off-rate constant (koff) – broadly, the rate constant with which the complex falls apart – is 4.9e-05 s⁻¹; the kon (as a rule, a measure of how fast the partners come together) came out at 107000 M⁻¹ s⁻¹.
In the same order, the values of B2 are 0.601 nM, 6.26e-05 s⁻¹ and 104000 M⁻¹ s⁻¹.
Regarding B3, the affinity, expressed as Kd, was 0.844 nM; the off-rate (koff) was 5.81e-05 s⁻¹; the association rate constant (kon) was found to be 68800 M⁻¹ s⁻¹.
For the molecule B4, the Kd (commonly the free concentration of one partner at which half of the binding sites on the other are occupied at equilibrium, for simple one-to-one binding) is less than 0.103 nM; the koff was less than 1e-05 s⁻¹; the kon was determined as 97400 M⁻¹ s⁻¹.

In another experiment the target is T1, recombinant human LAG-3-his protein …. Nature of the experiment: BLI Octet, Ab on AHC sensor, huLAG-3-his; test group 1. How it is done:
(§1) All 18 humanized antibodies (Table 34) and a chimeric antibody having the parental murine VH and VL domains (mAb747c) were ranked by dissociation rate constant (koff). Briefly, antibodies were characterized for affinities and binding kinetics by Octet®RED96 biolayer interferometry (Pall ForteBio LLC). Antibodies were captured by Anti-hIgG Fc Capture (AHC) Biosensors (Pall) at a concentration of 100 nM for 30 seconds. Sensors were then dipped into running buffer (1× pH7.2 PBS, 0.05% Tween 20, 0.1% BSA) for 60 seconds to check baseline. Binding was measured by dipping sensors into a single concentration of recombinant human LAG-3-his protein (Novoprotein). Dissociation was followed by dipping sensors into running buffer for 1200 seconds. The association and dissociation curves were fitted to a 1:1 Langmuir binding model using FortéBio Data Analysis software (Pall). In each test group, the off-rates of antibodies were able to be compared with that of mAb747c. The off-rate ratios were calculated by the off-rate of antibody to that of mAb747c of its group and were compared all together. The lower the ratio was, the higher was the affinity of the antibody.
B5: the koff was determined as 0.0109 s⁻¹ and the “off-rate ratio to that of mAb747c” value worked out at 801%.
Regarding B6, the dissociation rate constant (koff) came out at 0.0144 s⁻¹ and the “off-rate ratio to that of mAb747c” value amounted to 1060%.
B7: the koff is 0.011 s⁻¹ and the “off-rate ratio to that of mAb747c” value was 809%.
Taken in the same sequence, the figures for B8 were 0.00925 s⁻¹ and 682%.
Taken in the same sequence, the figures for B9 were 0.0108 s⁻¹ and 797%.
Taken in the same sequence, the figures for B10 were 0.00803 s⁻¹ and 592%.

The target is the same in a further experiment. In words: BLI Octet, Ab on AHC sensor, huLAG-3-his; test group 2. Here is the method:
as §1
B11: the koff came to 0.00423 s⁻¹ and the “off-rate ratio to that of mAb747c” value is 314%.
In the same order, the values of B12 are 0.00773 s⁻¹ and 575%.
Taken in the same sequence, the figures for B13 were 0.00719 s⁻¹ and 534%.
With B14, the off-rate (koff) turned out to be 0.0119 s⁻¹ and the “off-rate ratio to that of mAb747c” value is 888%.
